{"source": "paper doi:10.1101/2023.04.17.536592", "key": {"[1]": {"biological_target": "H. sapiens nucleosome core particle (NCP) (human)", "assay": "native gel or EMSA"}, "[2]": {"biological_target": "Kaposi's Sarcoma Herpesvirus Latency Associated Nuclear Antigen (LANA) peptide (Kaposi's Sarcoma Herpesvirus)", "sequence (Q9QR71 4-23)": "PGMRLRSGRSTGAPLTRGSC", "assay": "fluorescence polarisation"}}}
{"substance": "GST-His-TEV-tagged PFV GAG (from UniProt P14349 535-550) (peptide)", "values": [{"measurement": "Kd", "setting": "[1]", "value": 3500, "unit": "nM"}]}
{"substance": "H. sapiens nucleosome core particle (NCP) (complex)", "values": [{"measurement": "Kd", "setting": "[2]", "value": 2380, "unit": "nM"}]}
